Test results from patent US20190364907.

How the values were obtained:
[1] = target: recombinant human syntaxin1A fragment, Q16623
[2] = target: An. gambiae syntaxin M257V mutant
[3] = target: An. gambiae syntaxin H252N mutant
[4] = target: An. gambiae syntaxin Q261E T262R double mutant
[5] = target: An. gambiae syntaxin T264V Q265S double mutant
[6] = target: An. gambiae syntaxin L271V mutant
[7] = target: recombinant An. gambiae syntaxin1A fragment

Sequence of recombinant human syntaxin1A fragment, Q16623 (Q16623 whole entry, looked up, the tested form may be a part): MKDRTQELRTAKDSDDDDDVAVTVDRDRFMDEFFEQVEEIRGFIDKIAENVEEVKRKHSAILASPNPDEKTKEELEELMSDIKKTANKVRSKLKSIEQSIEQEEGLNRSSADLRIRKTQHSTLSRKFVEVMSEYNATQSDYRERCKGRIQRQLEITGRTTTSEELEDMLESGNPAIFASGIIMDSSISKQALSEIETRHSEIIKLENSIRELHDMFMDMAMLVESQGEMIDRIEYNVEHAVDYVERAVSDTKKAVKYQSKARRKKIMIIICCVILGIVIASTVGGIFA

B1: recombinant CMP1 LC (light chain of clostridial mosquitocidal protein 1) (protein)
chain: LQIRVFNYNDPIDGENIVELRYHNRSPVKAFQIVDGIWIIPERYNFTNDTKKVPDDRALTILEDEVFAVRENDYLTTDVNEKNSFLNNITKLFKRINSSNIGNQLLNYISTSVPYPVVSTNSIKARDYNTIKFDSIDGRRITKSANVLIYGPSMKNLLDKQTRAINGEEAKNGIGCLSDIIFSPNYLSVQTVSSSRFVEDPASSLTHELIHALHNLYGIQYPGEEKFKFGGFIDKLLGTRECIDYEEVLTYGGKDSEIIRKKIDKSLYPDDFVNKYGEMYKRIKGSNPYYPDEKKLKQSFLNRMNPFDQNGTFDTKEFKNHLMDLWFGLNESEFAKEKKILVRKHYITKQINPKYTELTNDVYTEDKGFVNGQSIDNQNFKIIDDLISKKVKL
For B1, the “cleavage of recombinant SNARE protein (SDS-PAGE / Western blot)” value (shortened to “cleavage … (SDS-PAGE / Western blot)”) [1] was “CMP1 LC was not able to cleave the recombinant human syntaxin1A”, the “cleavage of syntaxin mutant (Western blot)” value (“cleavage of syntaxin mutant” below) [2] was “Syntaxin mutants were cleaved with less efficiency than non-mutated syntaxin” and the “cleavage of syntaxin mutant” value [3] was “Syntaxin mutants were cleaved with less efficiency than non-mutated syntaxin”. For the same protein, the “cleavage of syntaxin mutant” value [4] was “Syntaxin mutants were cleaved with less efficiency than non-mutated syntaxin”, the “cleavage of syntaxin mutant” value [5] was “Syntaxin mutants were cleaved with less efficiency than non-mutated syntaxin” and the “cleavage of syntaxin mutant” value [6] was “the L271V mutant completely abolished cleavage”. For the same protein, the “cleavage … (SDS-PAGE / Western blot)” value [7] was “CMP1 LC cleaves the mosquito syntaxin resulting in a band of lower molecular weight that corresponds to cleavage of C-terminus of syntaxin”.

B2: catalytically inactive CMP1 LC E209Q mutant (protein)
chain: LQIRVFNYNDPIDGENIVELRYHNRSPVKAFQIVDGIWIIPERYNFTNDTKKVPDDRALTILEDEVFAVRENDYLTTDVNEKNSFLNNITKLFKRINSSNIGNQLLNYISTSVPYPVVSTNSIKARDYNTIKFDSIDGRRITKSANVLIYGPSMKNLLDKQTRAINGEEAKNGIGCLSDIIFSPNYLSVQTVSSSRFVEDPASSLTHQLIHALHNLYGIQYPGEEKFKFGGFIDKLLGTRECIDYEEVLTYGGKDSEIIRKKIDKSLYPDDFVNKYGEMYKRIKGSNPYYPDEKKLKQSFLNRMNPFDQNGTFDTKEFKNHLMDLWFGLNESEFAKEKKILVRKHYITKQINPKYTELTNDVYTEDKGFVNGQSIDNQNFKIIDDLISKKVKL
With B2 the “cleavage … (SDS-PAGE / Western blot)” value [7] was “no cleavage was observed by the catalytically inactive CMP1 LC E209Q mutant”.
